The results in this text go back to article PMC12362333.

Experiment [1] has as its target KDEL receptor (KDEL‐R) (mouse (endogenous in DRG neurons)) (UniProt Q99JH8).
Experiment [2] has the same target. The source holds these as a separate data set.
The target is the same in experiment [3]. The source holds these as a separate data set.
Experiment [4] shares this target. This is another data set of the same source.
For experiment [5] the target is unchanged. This is another data set of the same source.

Chain of UniProt Q99JH8 (Q99JH8 whole entry): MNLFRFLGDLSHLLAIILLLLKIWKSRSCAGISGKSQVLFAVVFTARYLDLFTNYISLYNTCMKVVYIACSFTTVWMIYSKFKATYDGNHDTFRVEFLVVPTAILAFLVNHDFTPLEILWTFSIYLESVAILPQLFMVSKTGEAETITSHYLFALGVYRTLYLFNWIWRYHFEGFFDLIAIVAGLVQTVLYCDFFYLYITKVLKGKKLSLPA

“CDNF‐ΔKTEL (CDNF without the last four residues KTEL) (domain or fragment)”: the viable cells by LDH release, DRG explants under trophic deprivation, CDNF-ΔKTEL (Figure 3E) in experiment [1] is 61%. This substance also came in with a neurite length of DRG explants after 72 h (Figure 1B) in experiment [2] of 200 μm. In experiment [3], this substance returned a neurite length in dissociated DRG cell cultures, CDNF-ΔKTEL 18 μg/mL, 3 days (Figure 7B) of less than 200 μm. The substance further registered a neurite length of DRG explants after NGF deprivation, CDNF-ΔKTEL 18 μg/mL for 48 h (Figure 3B) in experiment [4] of 200 μm. The neuritic area of DRG explants after 72 h, CDNF-ΔKTEL 1.8 and 18 μg/mL (Figure 1C) in experiment [5] is 2.9e+06 μm^2.

On to “cerebral dopamine neurotrophic factor (CDNF) (from UniProt Q49AH0 25-187) (ligand)”, for which, in experiment [1], the viable cells by LDH release, DRG explants under trophic deprivation, CDNF 18 μg/mL (Figure 3E) is 75%. The substance further displayed a neurite length of DRG explants after 72 h, CDNF 1.8 and 18 μg/mL (Figure 1B) in experiment [2] of 600 μm. This substance had a neurite length in dissociated DRG cell cultures, CDNF 18 μg/mL, 3 days (Figure 7B) in experiment [3] of 390 μm. The same substance registered a neurite length of DRG explants after NGF deprivation, CDNF 18 μg/mL for 48 h (Figure 3B) in experiment [4] of 500 μm. This substance also yielded a neuritic area of DRG explants after 72 h, CDNF 18 μg/mL (Figure 1C) in experiment [5] of 5.2e+06 μm^2.
